The series deals with the molecule itself. Description: cryo-EM structure.

B1: Homo sapiens ferritin (apoferritin) (natural protein, human, UniProt Q8TD27 1-165, looked up)
chain: MTTASTSQVRQNYHQDSEAAINRQINLELYASYVYLSMSYYFDRDDVALKNFAKYFLHQSHEEREHAEKLMKLQNQRGGRIFLQDIKKPDCDDWESGLNAMECALHLEKNVNQSLLEFPSPISPSPSCWHHYTTNRPQPQHHLLRPRRRKRPHSIPTPILIFRSP
With B1, the binding result is reported as “binds”.

Values taken from article doi:10.1101/2021.03.08.434344 (bioRxiv, 2021).
